Target: N-terminal six-histidine-tagged PepV (H6-PepV) (S. aureus) (UniProt Q2FXH9)
Experiment: pull-down; purified His-tagged bait (H6-PepV or SecA-H6) incubated 1 h at 4°C with cleared lysate of S. aureus RN4220 WT or Δspa, then Ni-NTA resin; immunoblot with αSecA and αPepV sera

Chain of UniProt Q2FXH9 (Q2FXH9 whole entry): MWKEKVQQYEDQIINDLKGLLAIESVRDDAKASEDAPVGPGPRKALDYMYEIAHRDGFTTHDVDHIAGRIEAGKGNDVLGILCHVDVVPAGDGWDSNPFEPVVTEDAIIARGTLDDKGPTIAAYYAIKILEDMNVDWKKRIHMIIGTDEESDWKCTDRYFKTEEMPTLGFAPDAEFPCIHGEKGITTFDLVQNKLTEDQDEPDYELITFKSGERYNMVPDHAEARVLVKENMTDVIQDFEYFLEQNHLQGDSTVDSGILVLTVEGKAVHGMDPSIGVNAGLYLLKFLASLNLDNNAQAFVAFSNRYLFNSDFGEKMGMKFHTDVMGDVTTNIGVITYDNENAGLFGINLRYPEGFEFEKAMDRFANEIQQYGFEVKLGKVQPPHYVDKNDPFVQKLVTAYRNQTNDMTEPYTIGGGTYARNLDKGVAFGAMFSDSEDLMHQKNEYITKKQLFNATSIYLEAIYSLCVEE

SecA (endogenous, S. aureus RN4220) (from UniProt Q2YSH6 1-843) (natural protein)
SecA eluted from H6-PepV beads with Δspa lysate, percent less than with WT lysate: 30 % less
